# B1: D10: ALPP targeting VHH domain, SEQ ID NO: 28 (protein)
# VHH: QVQLVESGGGLVQPGGSLRLSCAASGSIFSVNTMGWYRQAPGKQRDLVAVATSGGTIHYADSVKGRFTISRDNAKNTVYLQMNSLKPEDTAVYYCNLVVPYGMIAGDHDYWGQGTKVTVSS
# Columns and labels:
# [1] = target: T1, ALPP expressed on the surface of CHO cells (CHO-ALPP) (Homo sapiens, UniProt P05187); test: Cell-surface binding by flow cytometry, CHO-ALPP; conditions: VHH proteins
# T1 construct: expressed in transfected cells
# Procedure: (§1) C-terminal His tagged VHH proteins were assessed for ALPP, ALPPL2, ALPI and ALPL cell-surface binding by flow cytometry. Binders encompassing different epitope bins were screened on CHO cells stably expressing ALPP, ALPPL2, ALPI or ALPL. High levels of cell-surface proteins expression were confirmed for each of the cell-lines by flow cytometry.
# (§2) Cell surface binding of test agents to hALPP isoforms was characterized in four CHO-ALPP isoform stably transfected cell lines (CHO-ALPP, CHO-ALPPL2, CHO-ALPI and CHO-ALPL) and the resulting KDapp values determined. Adherent cells were detached from tissue culture flasks by incubating with 0.1% EDTA/PBS solution at 37° C. for ~10 minutes or until cells detached easily. […] Binding of VHH (His6 tagged) agents was determined by adding 100 μl of anti-x6His tag Ab (Abcam) per cell pellet sample as appropriate and incubating on ice for 30 mins. […]
# (§3) VHH-hFc proteins were assessed for human ALPP, ALPPL2, ALPI and ALPL cell-surface binding by flow cytometry. […]
# (§4) Cell surface binding of test agents to hALPP isoforms was characterized in four CHO-ALPP isoform transfectant cell lines (CHO-ALPP, CHO-ALPPL2, CHO-ALPI and CHO-ALPL) and the resulting KDapp values determined. […] Binding of VHH-hFc agents was determined by adding 100 μl of Fitc-anti-human Ab (ThermoFisher) and incubating for 30 mins on ice in the dark. […]
# [2] = target: T2, ALPPL2 expressed on the surface of CHO cells (CHO-ALPPL2) (Homo sapiens, UniProt P10696); test: Cell-surface binding by flow cytometry, CHO-ALPPL2; conditions: VHH His proteins
# T2 construct: expressed in transfected cells
# Procedure: as §1, §2, §3, §4
# T2 sequence (P10696 20-503 limits assumed): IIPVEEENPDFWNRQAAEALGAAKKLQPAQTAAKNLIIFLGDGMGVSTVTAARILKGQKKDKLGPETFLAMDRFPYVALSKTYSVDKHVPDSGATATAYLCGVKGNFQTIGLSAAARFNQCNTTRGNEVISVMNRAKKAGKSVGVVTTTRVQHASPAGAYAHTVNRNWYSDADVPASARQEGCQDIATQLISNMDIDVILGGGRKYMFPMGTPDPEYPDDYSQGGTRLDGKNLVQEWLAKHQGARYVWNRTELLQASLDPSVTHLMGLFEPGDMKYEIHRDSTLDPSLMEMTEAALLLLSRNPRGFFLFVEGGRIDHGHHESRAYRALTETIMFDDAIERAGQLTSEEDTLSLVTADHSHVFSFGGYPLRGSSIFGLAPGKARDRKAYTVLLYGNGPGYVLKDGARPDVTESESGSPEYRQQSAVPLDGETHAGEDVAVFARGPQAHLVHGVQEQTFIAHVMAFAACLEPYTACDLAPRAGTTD
# T1 sequence (P05187 23-506 limits assumed): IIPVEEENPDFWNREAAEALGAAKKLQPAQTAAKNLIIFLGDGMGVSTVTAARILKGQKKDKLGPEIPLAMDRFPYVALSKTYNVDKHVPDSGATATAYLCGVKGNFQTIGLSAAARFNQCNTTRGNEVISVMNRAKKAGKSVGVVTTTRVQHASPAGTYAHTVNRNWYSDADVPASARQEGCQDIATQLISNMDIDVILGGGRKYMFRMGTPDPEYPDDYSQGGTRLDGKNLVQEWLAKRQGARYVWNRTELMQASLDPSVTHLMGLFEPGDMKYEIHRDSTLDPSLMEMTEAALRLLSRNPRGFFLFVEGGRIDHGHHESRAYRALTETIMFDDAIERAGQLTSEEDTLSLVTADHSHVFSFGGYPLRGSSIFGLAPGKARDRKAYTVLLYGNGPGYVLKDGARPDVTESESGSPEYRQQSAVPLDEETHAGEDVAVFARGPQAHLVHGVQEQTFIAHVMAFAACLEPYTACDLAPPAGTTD
molecule,measurement,setting,value
B1,binding preference ALPP versus ALPPL2 on CHO cells,[1],preferential binding to ALPP over ALPPL2
same,KDapp CHO-ALPPL2,[2],Binding
